± gives the half width of the 95% confidence interval.
test: folding stability dG unfold from chymotrypsin proteolysis; higher = more stable
Outline: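 How resistant each design was to proteolysis was captured as K50, inferred by Bayesian fitting of sequencing counts. Unfolding free energy was then derived relative to a sequence-predicted unfolded-state K50 and a shared folded-state K50, per protease or combined. Digestion used trypsin and chymotrypsin at 11 threefold-diluted concentrations plus a no-protease condition, on mini-proteins under 80 residues without cysteine in a PA-tagged cDNA display construct. Designs were kept only when AlphaFold2 dimer inter-PAE was above 15.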

Row | Sequence | folding stability dG unfold [kcal/mol]
1 | SAGGSAGGSAGGMNPIVIKKTYPVKSGSFTVTLPEGVTPVSFEKDPNSDTITIEVLVEPSAGGSAGGSAGGS [r10_906_JUSTAS] | -0.713 ± 0.37
2 | SMEIVFKGKNYYVPVKIDLDNPKITIETYPDKRNKVFKPLSKETAEKIAKAVEIEVAEKIAKAIAEGKPPSA [r9_368_TrMRF] | -0.5 ± 0.66
3 | SAGGAEIKITSIEYNPETKTITAKVEITVDGKKFTFTITIKLKAAPAPPTVTVTDKDIPGKTVTLTKTSAGG [r13_615_TrROS_Hall] | 2.38 ± 0.13
4 | SAPIRPGQDLKIEPEIRRYPNGSMSYTYRLEFPNGPTVHVRHTMQRDPEHGKPRHKWDIHLSPKALEAFSAG [r14_842_TrROS] | 1.37 ± 0.09
5 | SDPNKPWTAEEIAKIIEEKILEEFDVEEIIPKELKVFPKEGTVKVKMLVKYKGEPGKYFELEVEISPEELSA [r9_1002_TrMRF] | 2.9 ± 0.038
6 | SAGGSAGGSAGGSRMRLEITVRDENGLLVRLEVEFEEKDGELEMKVRAEVFPLPEEEEESAGGSAGGSAGGS [r4_168_TrROS_Hall] | 2.71 ± 0.059
7 | SAGGSAMKKTTATFYVRPDSLTVEIELGEKTKKLTFDPSVSIEEVKASLPDYVDEVKVKPASPSLSSAGGSA [r15_1058_JUSTAS] | 0.529 ± 0.27
8 | SAGGSKPILKIKITIYRIDKNGKLIKKIELTLPPLTEEQLKKLLEALKKLPKDVKIVEVKIELVEPSAGGSA [r2_75_TrROS_Hall] | 4.54 ± 0.26
9 | SAGGSMSAEELREKIAADPRISLDDVTVTVTRTPDSVTVTVTLKDPNDPVYVEAEERARALFAELASAGGSA [r2_3_JUSTAS] | -1 ± 0.24
10 | SAGGSAGMMKVTTTPVSADTVRVTVTVPGGPFTVTVTQNGVPLLTRTVPADATLTITLPPNATVVGSAGGSA [r15_581_JUSTAS] | 1.94 ± 0.078
11 | SSVTIPFKITDPNTTIAEIAERVRELLPESLGELSVTVTFSDGTTLNVTPGENLSKYYSPDDELTITVDAPS [r1_56_JUSTAS] | 1.23 ± 0.11
12 | SAGGSAGGSAGGTIEELVKAGKTVKVRVRLKNGETLEVEIRPDEVVEFPNIEEIEVEEVSAGGSAGGSAGGS [r10_700_TrROS_Hall] | 1.86 ± 0.026
13 | SAGGSAGGSAMKLKVPTKDGKVYEVTVVDYDPENEKVVVKNPDTDELYTFSLEDFKKILEANSAGGSAGGSA [r18_161_TrMRF] | 3.55 ± 0.08
14 | SAGGSAGGSGPKPRLIKLTFLLEPGKVEEFAQALRDAGFEIVSVEVEPLPDGGERATVTVRIDSAGGSAGGS [r12_905_TrMRF] | 3.82 ± 0.07
15 | SMNITVTYDPETDTVTIEIDDEEIDPETLRELLDAIPPNVKRVIIHVDHPETARTVEELAKETGLPVEIASA [r9_919_TrMRF] | 3.2 ± 0.13
16 | SKPDPVKIEIEQERNPNGQPQHTIKIQDKGKDRKFPIHNMSIDEFDPDDPYIKIRSPGNGQSHTIPPDDLSA [r9_1186_TrROS] | 1.22 ± 0.022

Row | Sequence | folding stability dG unfold [kcal/mol]
17 | SVNPATQVVTVTREVTYPVPPSQGPISEEEAREAVEAELAARGWTLREVRVEYEGDTVTVTAVAERPAAASA [r9_1134_JUSTAS] | 1.13 ± 0.053
18 | SAGGSAKDEKVVVIVRREVRLRSRPKVDLGEGNPRVEFESSVEVRVPFLVLPEDDPVARELRELEGSAGGSA [r15_470_TrMRF] | -0.255 ± 0.24
19 | SAGGKKEKIVEIKLLDMSYDPENKTVTFKFLVKLENGEEKVIELKISAEDFEKMSLEDILKAVKDFFESAGG [r13_512_TrMRF] | 4.83 ± 0.09
20 | SAGPTVRQETFGEKYRIEVEVSPDGTVKVKIVNENGEVTELEGKVEPGKPVVLPFPLDGHVVNVVVLPASAG [r5_237_TrMRF] | 2.91 ± 0.06
21 | SAGGSAGGSGEVLLLSANSFSFSEGDGLLVVVNLPNGGYVVLPFKKGDLNLNLPSSGYSEFFGSAGGSAGGS [r12_746_TrMRF] | 1.79 ± 0.046
22 | SAGGGNVTKTSTTTLPNGTTLVTYTGTSPSSAGSKNLSLLSLPFDVTVTKVEFDPNTGKVTIETVIPPSAGG [r13_413_JUSTAS] | 1.25 ± 0.14
23 | SAGKEVIVITVEELEKLLKALKPGEKVKIVVINKDGKKVTFTAEVKDGKVEIKEAEKDIKPGDKIFIEKSAG [r5_85_TrROS_Hall] | 3.49 ± 0.28
24 | SAGGSAGGSWIPLPDGYLIKITEVVPGGIRIKFPDMGNEITIPPGMPIKIKIIPVKDPDGEPISAGGSAGGS [r20_105_TrROS] | 0.838 ± 0.05
25 | SAGGSKLPPGQKVIEIEWKIPPGLKPGQPFKISDEFINKLAERHGNIHITNIQFTNSYMKWSIIIDSAGGSA [r2_383_TrROS] | 2.2 ± 0.051
26 | SAGGSAGGSAGPTLTLTLPPGKLSPEFLEALAAQGYTLGEVTVTEVPEDDTVVVTVTTAPSAGGSAGGSAGG [r11_345_JUSTAS] | 0.623 ± 0.12
27 | SPPVSTTTPVPDPENGVVVATVTLTTDPTTGEKTLILKSPEGKTKTVTLSPDETFPVEGLPKGLTATSSVSA [r9_1150_JUSTAS] | 0.437 ± 0.082
28 | SAGQTIRIDEIYPHPDGFLIKIRYPDGKVHTFPIKPNMPITVDGDTITITFPGGPITIPLENMEIEILPSAG [r5_999_TrROS] | 3.17 ± 0.039
29 | SAGGSFPIADVKEVKVEAYPETNTAKVPFTFPNGVTAVADAYLDPVTGRPVLVVRTPDGRLVVLPLSAGGSA [r2_490_TrMRF] | 1.15 ± 0.12
30 | SAGGSAGGSAGGSMELKLKVVEKTETRSATPGEDEPLPGNSSVTYEGNTLTTTTLVLVPLSAGGSAGGSAGG [r7_506_JUSTAS] | -0.736 ± 0.44
31 | SAGGMIRITEGPNYYKITFWMPPNNPSLLEEIADFFGNPKVDTEPIPEDGMTRHEITLPLDDPEAIKSAGGS [r16_479_TrROS] | 1.37 ± 0.23

Source: the supplement of paper PMC12764529
